B1: CBL-interacting serine/threonine-protein kinase 1 (Arabidopsis thaliana (Mouse-ear cress)), Q8RWC9 (parent)
chain: MVRRQEEEKKAEKGMRLGKYELGRTLGEGNFGKVKFAKDTVSGHSFAVKIIDKSRIADLNFSLQIKREIRTLKMLKHPHIVRLHEVLASKTKINMVMELVTGGELFDRIVSNGKLTETDGRKMFQQLIDGISYCHSKGVFHRDLKLENVLLDAKGHIKITDFGLSALPQHFRDDGLLHTTCGSPNYVAPEVLANRGYDGAASDIWSCGVILYVILTGCLPFDDRNLAVLYQKICKGDPPIPRWLSPGARTMIKRMLDPNPVTRITVVGIKASEWFKLEYIPSIPDDDDEEEVDTDDDAFSIQELGSEEGKGSDSPTIINAFQLIGMSSFLDLSGFFEQENVSERRIRFTSNSSAKDLLEKIETAVTEMGFSVQKKHAKLRVKQEERNQKGQVGLSVTAEVFEIKPSLNVVELRKSYGDSCLYRQLYERLLKDVGTSSPEQEIVT

Variants of: B1
Conditions: with cnbl2_arath CBL2, Q8LAS7

Row | Variant | effect of a mutation on the interaction
1 | MVRRQEEEKKAEKGMRLGKYELGRTLGEGNFGKVKFAKDTVSGHSFAVKIIDKSRIADLNFSLQIKREIRTLKMLKHPHIVRLHEVLASKTKINMVMELVTGGELFDRIVSNGKLTETDGRKMFQQLIDGISYCHSKGVFHRDLKLENVLLDAKGHIKITDFGLSALPQHFRDDGLLHTTCGSPNYVAPEVLANRGYDGAASDIWSCGVILYVILTGCLPFDDRNLAVLYQKICKGDPPIPRWLSPGARTMIKRMLDPNPVTRITVVGIKASEWFKLEYIPSIPDDDDEEEVDTDDDAFSIQELGSEEGKGSDSPTIINAFQLDGMSSFLDLSGFFEQENVSERRIRFTSNSSAKDLLEKIETAVTEMGFSVQKKHAKLRVKQEERNQKGQVGLSVTAEVFEIKPSLNVVELRKSYGDSCLYRQLYERLLKDVGTSSPEQEIVT [I324D] | decreasing interaction
2 | MVRRQEEEKKAEKGMRLGKYELGRTLGEGNFGKVKFAKDTVSGHSFAVKIIDKSRIADLNFSLQIKREIRTLKMLKHPHIVRLHEVLASKTKINMVMELVTGGELFDRIVSNGKLTETDGRKMFQQLIDGISYCHSKGVFHRDLKLENVLLDAKGHIKITDFGLSALPQHFRDDGLLHTTCGSPNYVAPEVLANRGYDGAASDIWSCGVILYVILTGCLPFDDRNLAVLYQKICKGDPPIPRWLSPGARTMIKRMLDPNPVTRITVVGIKASEWFKLEYIPSIPDDDDEEEVDTDDDAFSIQELGSEEGKGSDSATIINAFQLIGMSSFLDLSGFFEQENVSERRIRFTSNSSAKDLLEKIETAVTEMGFSVQKKHAKLRVKQEERNQKGQVGLSVTAEVFEIKPSLNVVELRKSYGDSCLYRQLYERLLKDVGTSSPEQEIVT [P315A] | decreasing interaction
3 | MVRRQEEEKKAEKGMRLGKYELGRTLGEGNFGKVKFAKDTVSGHSFAVKIIDKSRIADLNFSLQIKREIRTLKMLKHPHIVRLHEVLASKTKINMVMELVTGGELFDRIVSNGKLTETDGRKMFQQLIDGISYCHSKGVFHRDLKLENVLLDAKGHIKITDFGLSALPQHFRDDGLLHTTCGSPNYVAPEVLANRGYDGAASDIWSCGVILYVILTGCLPFDDRNLAVLYQKICKGDPPIPRWLSPGARTMIKRMLDPNPVTRITVVGIKASEWFKLEYIPSIPDDDDEEEVDTDDDAFSIQELGSEEGKGSDSPTIINPFQLIGMSSFLDLSGFFEQENVSERRIRFTSNSSAKDLLEKIETAVTEMGFSVQKKHAKLRVKQEERNQKGQVGLSVTAEVFEIKPSLNVVELRKSYGDSCLYRQLYERLLKDVGTSSPEQEIVT [A320P] | disrupting interaction

Now from value to variant:

Row | effect of a mutation on the interaction | Variant
4 | disrupting interaction | MVRRQEEEKKAEKGMRLGKYELGRTLGEGNFGKVKFAKDTVSGHSFAVKIIDKSRIADLNFSLQIKREIRTLKMLKHPHIVRLHEVLASKTKINMVMELVTGGELFDRIVSNGKLTETDGRKMFQQLIDGISYCHSKGVFHRDLKLENVLLDAKGHIKITDFGLSALPQHFRDDGLLHTTCGSPNYVAPEVLANRGYDGAASDIWSCGVILYVILTGCLPFDDRNLAVLYQKICKGDPPIPRWLSPGARTMIKRMLDPNPVTRITVVGIKASEWFKLEYIPSIPDDDDEEEVDTDDDAFSIQELGSEEGKGSDSPTIINAFQLIGMSSFLDLSGPFEQENVSERRIRFTSNSSAKDLLEKIETAVTEMGFSVQKKHAKLRVKQEERNQKGQVGLSVTAEVFEIKPSLNVVELRKSYGDSCLYRQLYERLLKDVGTSSPEQEIVT [F335P]
5 | disrupting interaction | MVRRQEEEKKAEKGMRLGKYELGRTLGEGNFGKVKFAKDTVSGHSFAVKIIDKSRIADLNFSLQIKREIRTLKMLKHPHIVRLHEVLASKTKINMVMELVTGGELFDRIVSNGKLTETDGRKMFQQLIDGISYCHSKGVFHRDLKLENVLLDAKGHIKITDFGLSALPQHFRDDGLLHTTCGSPNYVAPEVLANRGYDGAASDIWSCGVILYVILTGCLPFDDRNLAVLYQKICKGDPPIPRWLSPGARTMIKRMLDPNPVTRITVVGIKASEWFKLEYIPSIPDDDDEEEVDTDDDAFSIQELGSEEGKGSDSPTIINAFQLIGMSSFLDDSGFFEQENVSERRIRFTSNSSAKDLLEKIETAVTEMGFSVQKKHAKLRVKQEERNQKGQVGLSVTAEVFEIKPSLNVVELRKSYGDSCLYRQLYERLLKDVGTSSPEQEIVT [L332D]
6 | decreasing interaction | MVRRQEEEKKAEKGMRLGKYELGRTLGEGNFGKVKFAKDTVSGHSFAVKIIDKSRIADLNFSLQIKREIRTLKMLKHPHIVRLHEVLASKTKINMVMELVTGGELFDRIVSNGKLTETDGRKMFQQLIDGISYCHSKGVFHRDLKLENVLLDAKGHIKITDFGLSALPQHFRDDGLLHTTCGSPNYVAPEVLANRGYDGAASDIWSCGVILYVILTGCLPFDDRNLAVLYQKICKGDPPIPRWLSPGARTMIKRMLDPNPVTRITVVGIKASEWFKLEYIPSIPDDDDEEEVDTDDDAFSIQELGSEEGKGSDSPTIINAFQLIGMLSFLDLSGFFEQENVSERRIRFTSNSSAKDLLEKIETAVTEMGFSVQKKHAKLRVKQEERNQKGQVGLSVTAEVFEIKPSLNVVELRKSYGDSCLYRQLYERLLKDVGTSSPEQEIVT [S327L]
